The chains are these.
B1: SEQ ID NO 288 (peptide)
peptide: cyclo([Bip][4Pal][Phe(4-COOH)]G[Pro(cis-4-F)][1Nal(3S-Me)][Aib]SW[d(αMeD)][aThr]Q[Dab]G[dPro(4R-(4-pyridylmethyl))])
modifications: ring closure inferred
B2: SEQ ID NO 275 (peptide)
peptide: cyclo([Bip(4'-COOH)][4Pal][orbOHorPhe4COOH]G[Pro(cis-4-F)][Trp(βS-Me,4-F)][Aib]SW[Aib][Ala(pyrimidin-5-yl)]Q[Dab]G[dPro(4R-Bzl(4-F))])
modifications: ring closure inferred
B3: SEQ ID NO 282 (peptide)
peptide: cyclo([Phe4Pyrim][4Pal][Phe(4-COOH)]G[Pro(cis-4-F)][Trp(βS-Me,4-F)][Aib]SW[d(αMeD)][Ala(pyrimidin-5-yl)]Q[Dab]G[dPro(3S-(4-F-Bn))])
modifications: ring closure inferred
B4: SEQ ID NO 273 (peptide)
peptide: cyclo([Bip(4'-COOH)][4Pal][Phe(4-COOH)]G[Pro(cis-4-F)][Trp(βS-Me,4-F)][Aib]SW[Aib][RbOH4Pal]Q[Dab]G[dPro(4R-Bzl(4-F))])
modifications: ring closure inferred
B5: SEQ ID NO 283 (peptide)
peptide: cyclo([Phe(4-(4-pyridyl))][4Pal][Phe(4-COOH)]G[Pro(cis-4-F)][Trp(βS-Me,4-F)][Aib]SW[d(αMeD)][Ala(pyrimidin-5-yl)]Q[Dab]G[dPro(3S-(4-F-Bn))])
modifications: ring closure inferred
B6: SEQ ID NO 281 (peptide)
peptide: cyclo([Phe4PyrimOMe][4Pal][Phe(4-COOH)]G[Pro(cis-4-F)][Trp(βS-Me,4-F)][Aib]SW[d(αMeD)][Ala(pyrimidin-5-yl)]Q[Dab]G[dPro(3S-(4-F-Bn))])
modifications: ring closure inferred
B7: SEQ ID NO 287 (peptide)
peptide: cyclo([Bip(4'-COOH)][4Pal][Phe(4-COOH)]G[Pro(cis-4-F)][Trp(βS-Me,4-F)][Aib]SW[d(αMeD)][Ala(piperazin-1-yl)]Q[Dab]G[dPro(3S-(4-F-Bn))])
modifications: ring closure inferred
B8: SEQ ID NO 278 (peptide)
peptide: cyclo(Y[4Pal][Phe(4-COOH)]G[Pro(cis-4-F)][Trp(βS-Me,4-F)][Aib]SW[d(αMeD)][Ala(pyrimidin-5-yl)]Q[Dab]G[dPro(3S-(4-F-Bn))])
modifications: ring closure inferred
B9: SEQ ID NO 280 (peptide)
peptide: cyclo([Phe42ImMe][4Pal][Phe(4-COOH)]G[Pro(cis-4-F)][Trp(βS-Me,4-F)][Aib]SW[d(αMeD)][Ala(pyrimidin-5-yl)]Q[Dab]G[dPro(3S-(4-F-Bn))])
modifications: ring closure inferred
B10: SEQ ID NO 274 (peptide)
peptide: cyclo([Bip(4'-COOH)][RbOH4Pal][Phe(4-COOH)]G[Pro(cis-4-F)][Trp(βS-Me,4-F)][Aib]SW[Aib][Ala(pyrimidin-5-yl)]Q[Dab]G[dPro(4R-Bzl(4-F))])
modifications: ring closure inferred
B11: SEQ ID NO 279 (peptide)
peptide: cyclo([Phe4ImMe][4Pal][Phe(4-COOH)]G[Pro(cis-4-F)][Trp(βS-Me,4-F)][Aib]SW[d(αMeD)][Ala(pyrimidin-5-yl)]Q[Dab]G[dPro(3S-(4-F-Bn))])
modifications: ring closure inferred
B12: SEQ ID NO 285 (peptide)
peptide: cyclo([Bip(4'-COOH)][Ala(1-bicyclo(1.1.1)pentyl)][Phe(4-COOH)]G[Pro(cis-4-F)][Trp(βS-Me,4-F)][Aib]SW[d(αMeD)][4PyrimAla]Q[Dab]G[dPro(4R-(4-pyridylmethyl))])
modifications: ring closure inferred
B13: SEQ ID NO 286 (peptide)
peptide: cyclo([Bip(4'-COOH)][4Pal][Phe(4-COOH)]G[Pro(cis-4-F)][Trp(βS-Me,4-F)][Aib]SW[d(αMeD)][Ala(morpholin-4-yl)]Q[Dab]G[dPro(3S-(4-F-Bn))])
modifications: ring closure inferred
B14: SEQ ID NO 284 (peptide)
peptide: cyclo([Bip(4'-COOH)][Ala(1-bicyclo(1.1.1)pentyl)][Phe(4-COOH)]G[Pro(cis-4-F)][Trp(βS-Me,4-F)][Aib]SW[d(αMeD)][4PyrimAla]Q[Dab]G[dProc3CH24Pal])
modifications: ring closure inferred
B15: SEQ ID NO 277 (peptide)
peptide: cyclo([Phe4F][4Pal][Phe(4-COOH)]G[Pro(cis-4-F)][Trp(βS-Me,4-F)][Aib]SW[d(αMeD)][Ala(pyrimidin-5-yl)]Q[Dab]G[dPro(3S-(4-F-Bn))])
modifications: ring closure inferred
B16: SEQ ID NO 271 (peptide)
peptide: cyclo([Bip(4'-COOH)][4Pal][Phe(4-COOH)]G[Pro(cis-4-F)][Trp(βS-Me,4-F)][Aib]EW[Aib][AlaPiperazAc]QSG[dPro(4R-Bzl(4-F))])
modifications: ring closure inferred
B17: SEQ ID NO 272 (peptide)
peptide: cyclo([Bip(4'-COOH)][4Pal][Phe(4-COOH)]G[Pro(cis-4-F)][Trp(βS-Me,4-F)][Aib]SW[Aib][SbOH4Pal]Q[Dab]G[dPro(4R-Bzl(4-F))])
modifications: ring closure inferred
B18: SEQ ID NO 276 (peptide)
peptide: cyclo([Bip(4'-COOH)][4Pal][Phe(4-COOH)]G[Pro(cis-4-F)][Trp(βS-Me,4-F)][Aib]EW[Aib]HQ[Dab]G[dPro(4R-Bzl(4-F))])
modifications: ring closure inferred
B19: SEQ ID NO 269 (peptide)
peptide: cyclo([Bip][4Pal][Phe(4-COOH)]G[Pro(cis-4-F)][Trp(βS-Me,4-F)][Aib]SW[Aib][Ala(2-carboxypyrimidin-5-yl)]Q[Dab]G[dPro(4R-(4-pyridylmethyl))])
modifications: ring closure inferred
B20: SEQ ID NO 270 (peptide)
peptide: cyclo([Bip(4'-COOH)][4Pal][Phe(4-COOH)]G[Pro(cis-4-F)][Trp(βS-Me,4-F)][Aib]SW[Aib][Ala(pyrimidin-5-yl)]Q[Dap(CONH2)]G[dPro(4R-(4-pyridylmethyl))])
modifications: ring closure inferred

Starred links: 1 amine or outer side, 2 acyl side, 3 side chain; linkers in the order of their positions; H or OH if unused. Non-standard residues stand in square brackets, D forms with d. orbOHorPhe4COOH = 4-[(1R,2S)-2-amino-2-carboxy-1-hydroxy-ethyl]benzoic acid, O=C([C@@H](N[*:1])[C@H](O)c1ccc(C(=O)[*:3])cc1)[*:2]; Phe4PyrimOMe = (S)-2-amino-3-(4-(2-methoxypyrimidin-5-yl)phenyl)propanoic acid, COc1ncc(-c2ccc(C[C@H](N[*:1])C(=O)[*:2])cc2)cn1; Phe4ImMe = (S)-2-amino-3-(4-(1-methyl-1H-imidazol-4-yl)phenyl)propanoic acid, Cn1cnc(-c2ccc(C[C@H](N[*:1])C(=O)[*:2])cc2)c1; Phe42ImMe = (S)-2-amino-3-(4-(1-methyl-1H-imidazol-2-yl)phenyl)propanoic acid, Cn1ccnc1-c1ccc(C[C@H](N[*:1])C(=O)[*:2])cc1; dProc3CH24Pal = (2R,3S)-3-(4-pyridylmethyl)pyrrolidine-2-carboxylic acid, O=C([C@H]1[C@@H](Cc2ccncc2)CCN1[*:1])[*:2]; SbOH4Pal = (2S,3S)-2-amino-3-hydroxy-3-(4-pyridyl)propanoic acid, O=C([C@@H](N[*:1])[C@@H](O[*:3])c1ccncc1)[*:2]; Phe4Pyrim = (S)-2-amino-3-(4-(pyrimidin-5-yl)phenyl)propanoic acid, O=C([C@H](Cc1ccc(-c2cncnc2)cc1)N[*:1])[*:2]; RbOH4Pal = (2S,3R)-2-amino-3-hydroxy-3-(4-pyridyl)propanoic acid, O=C([C@@H](N[*:1])[C@H](O[*:3])c1ccncc1)[*:2]; AlaPiperazAc = (S)-3-(4-acetylpiperazin-1-yl)-2-aminopropanoic acid, CC(=O)N1CCN(C[C@H](N[*:1])C(=O)[*:2])CC1; 4PyrimAla = (2S)-2-amino-3-pyrimidin-4-yl-propanoic acid, O=C([C@H](Cc1ccncn1)N[*:1])[*:2]; Ala(2-carboxypyrimidin-5-yl) = N[C@@H](Cc1cnc(C(=O)O)nc1)C(=O)O; dPro(4R-(4-pyridylmethyl)) = O=C(O)[C@H]1C[C@@H](Cc2ccncc2)CN1; Trp(βS-Me,4-F) = C[C@@H](c1c[nH]c2cccc(F)c12)[C@H](N)C(=O)O; Bip(4'-COOH) = N[C@@H](Cc1ccc(-c2ccc(C(=O)O)cc2)cc1)C(=O)O; Ala(1-bicyclo(1.1.1)pentyl) = N[C@@H](CC12CC(C1)C2)C(=O)O; Phe(4-(4-pyridyl)) = N[C@@H](Cc1ccc(-c2ccncc2)cc1)C(=O)O; dPro(4R-Bzl(4-F)) = O=C(O)[C@H]1C[C@@H](Cc2ccc(F)cc2)CN1; dPro(3S-(4-F-Bn)) = O=C(O)[C@@H]1NCC[C@@H]1Cc1ccc(F)cc1; 1Nal(3S-Me) = C[C@@H](c1cccc2ccccc12)[C@H](N)C(=O)O; Ala(morpholin-4-yl) = N[C@@H](CN1CCOCC1)C(=O)O; Ala(piperazin-1-yl) = N[C@@H](CN1CCNCC1)C(=O)O; Ala(pyrimidin-5-yl) = N[C@@H](Cc1cncnc1)C(=O)O; Phe(4-COOH) = N[C@@H](Cc1ccc(C(=O)O)cc1)C(=O)O; Bip = N[C@@H](Cc1ccc(-c2ccccc2)cc1)C(=O)O; Pro(cis-4-F) = O=C(O)[C@@H]1C[C@H](F)CN1; Dap(CONH2) = NC(=O)NC[C@H](N)C(=O)O; d(αMeD) = C[C@@](N)(CC(=O)O)C(=O)O; 4Pal = N[C@@H](Cc1ccncc1)C(=O)O; aThr = C[C@H](O)[C@H](N)C(=O)O; Dab = NCC[C@H](N)C(=O)O; Aib = CC(C)(N)C(=O)O

For the test, the target named is Recombinant human IL-1β (BioLegend 579404) (human, UniProt P01584 117-269). In words: cell-based or functional assay.
Take B1: the “MRC5 IC50” value was found to be 0.019 nM.

For B2, the “MRC5 IC50” value stood at 0.018 nM.

Take B3: the “MRC5 IC50” value came to 0.014 nM.

B4: the “MRC5 IC50” value amounted to 0.013 nM.

As for B5, the “MRC5 IC50” value was 0.016 nM.

For B6, the “MRC5 IC50” value came to 0.012 nM.

Regarding B7, the “MRC5 IC50” value was found to be 0.011 nM.

In the case of B8, the “MRC5 IC50” value came out at 0.021 nM.

As for B9, the “MRC5 IC50” value was determined as 0.016 nM.

For the molecule B10, the “MRC5 IC50” value was determined as 0.026 nM.

For the molecule B11, the “MRC5 IC50” value stood at 0.013 nM.

Consider B12, for which the “MRC5 IC50” value is 0.013 nM.

As to B13, the “MRC5 IC50” value amounted to 0.01 nM.

Consider B14, for which the “MRC5 IC50” value came out at 0.015 nM.

For the molecule B15, the “MRC5 IC50” value worked out at 0.023 nM.

With B16, the “MRC5 IC50” value came out at 0.023 nM.

As to B17, the “MRC5 IC50” value turned out to be 0.018 nM.

In the case of B18, the “MRC5 IC50” value is 0.017 nM.

For B19, the “MRC5 IC50” value turned out to be 0.014 nM.

As to B20, the “MRC5 IC50” value came to 0.023 nM.
